US20040091878

Legend:
Assay in all cases: EMSA
[1] = test system: Clone 6 ZFP (6-finger) (artificial); settings: probe flanks not given; 0.1 mM ZnCl2
[2] = test system: Clone 7 ZFP (6-finger) (artificial); settings: probe flanks not given; Table 5 prints TAGGTGGCATTGGGTGCTC, listing SEQ 67 tacgtggcattgggtgctc
[3] = test system: Clone 5 ZFP (BCTV whole L1, 6-finger) (artificial); settings: probe 0.03 fmol per 10 ul; vast majority bound at 3 pM; 0.1 mM ZnCl2

## AGTAAGGTAGGAGATGATA (double strand) [Clone 6 target]
[1]
  Kd: < 3 pM

## TACGTGGCATTGGGTGCTC (double strand) [Clone 7 target]
[2]
  Kd: < 3 pM

## TATATATATTGGGTGCTTTGGGTGCTCTATATATA (double strand) [BCTV whole L1 probe]
[3]
  Kd: < 3 pM
